Test results: US20180162938A1 (GANYMED PHARMACEUTICALS, published 2018)

Experiments:
[1] = molecular target: human CLDN3 (claudin 3) (human) (UniProt O15551); test: flow cytometry, HEK293T transiently co-transfected with the claudin and a fluorescence reporter; positive control, by the legend MAB4620; other quadrants printed: Q1 37,91, Q3 29,94, Q4 0,76
[2] = molecular target: T1, human CLDN6 (claudin 6), full length (human, UniProt P56747 1-220); test: flow cytometry, HEK293T transiently co-transfected with the claudin and a fluorescence reporter; positive control, by the legend MAB3656; other quadrants printed: Q1 58,39, Q3 18,6…, Q4 0,13
T1 construct: Expressed untagged from vector p3953 in HEK293T, HEK293 and CHO-K1 cells; endogenous in NEC8 and OV90 cells; In the Western blots it stood in denatured cell lysate; also called wild-type CLDN6
T1 sequence: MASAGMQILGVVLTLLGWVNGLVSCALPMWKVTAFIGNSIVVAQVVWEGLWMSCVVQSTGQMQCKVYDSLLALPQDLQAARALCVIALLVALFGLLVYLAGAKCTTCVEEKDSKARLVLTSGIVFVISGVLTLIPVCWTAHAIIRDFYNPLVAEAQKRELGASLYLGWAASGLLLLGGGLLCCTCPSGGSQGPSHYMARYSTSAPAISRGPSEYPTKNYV

[3] = molecular target: CLDN6 SNP (single nucleotide polymorphism) variant I143V (human) (UniProt P56747); test: flow cytometry, HEK293T transiently co-transfected with the claudin and a fluorescence reporter; positive control, by the legend MAB3656; other quadrants printed: Q1 47,20, Q3 20,26, Q4 0,33
[4] = molecular target: CLDN6 SNP (single nucleotide polymorphism) variant I143V (human) (UniProt P56747); test: flow cytometry, HEK293T transiently co-transfected with the claudin and a fluorescence reporter; other quadrants printed: Q1 0,18, Q3 64,8…, Q4 34,5…
[5] = molecular target: human CLDN9 (claudin 9) (human) (UniProt O95484); test: flow cytometry, HEK293T transiently co-transfected with the claudin and a fluorescence reporter; other quadrants printed: Q1 0,65, Q3 53,91, Q4 44,03
[6] = molecular target: T1, human CLDN6 (claudin 6), full length; test: flow cytometry, HEK293T transiently co-transfected with the claudin and a fluorescence reporter; other quadrants printed: Q1 0,09, Q3 75,0…, Q4 24,73
[7] = molecular target: human CLDN3 (claudin 3) (human) (UniProt O15551); test: flow cytometry, HEK293T transiently co-transfected with the claudin and a fluorescence reporter; other quadrants printed: Q1 0,32, Q3 63,10, Q4 36,2…
[8] = molecular target: human CLDN4 (claudin 4) (human) (UniProt O14493); test: flow cytometry, HEK293T transiently co-transfected with the claudin and a fluorescence reporter; other quadrants printed: Q1 0,47, Q3 51,89, Q4 46,45
[9] = molecular target: T1, human CLDN6 (claudin 6), full length; test: flow cytometry saturation binding (median fluorescence), HEK293 cells stably expressing human CLDN6

Chain of human CLDN3 (claudin 3) (human) (O15551 whole entry): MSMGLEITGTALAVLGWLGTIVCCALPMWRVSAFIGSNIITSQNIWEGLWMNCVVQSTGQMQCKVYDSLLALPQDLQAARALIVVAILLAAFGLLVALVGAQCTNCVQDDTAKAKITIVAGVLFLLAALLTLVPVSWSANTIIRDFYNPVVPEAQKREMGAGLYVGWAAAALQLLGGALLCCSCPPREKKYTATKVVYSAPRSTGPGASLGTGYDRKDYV
Chain of human CLDN9 (claudin 9) (human) (O95484 whole entry): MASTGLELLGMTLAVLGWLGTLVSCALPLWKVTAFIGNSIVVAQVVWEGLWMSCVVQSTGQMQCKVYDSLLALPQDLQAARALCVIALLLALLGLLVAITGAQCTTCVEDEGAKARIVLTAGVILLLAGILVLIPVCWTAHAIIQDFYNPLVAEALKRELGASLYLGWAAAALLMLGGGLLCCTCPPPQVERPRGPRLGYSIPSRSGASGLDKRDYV
Chain of human CLDN4 (claudin 4) (human) (O14493 whole entry): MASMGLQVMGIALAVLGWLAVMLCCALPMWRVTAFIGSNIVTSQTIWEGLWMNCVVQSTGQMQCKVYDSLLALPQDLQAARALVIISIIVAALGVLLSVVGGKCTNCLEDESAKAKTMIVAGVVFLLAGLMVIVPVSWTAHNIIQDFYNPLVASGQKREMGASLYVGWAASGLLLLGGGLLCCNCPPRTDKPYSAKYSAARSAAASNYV

mouse anti-CLDN3 IgG2a (R&D Systems, MAB4620) (antibody)
percent of events in Q2 (reporter-positive, antibody-positive) [1]: 31.4

mouse anti-CLDN6 IgG2b (R&D Systems, MAB3656) (antibody)
percent of events in Q2 (reporter-positive, antibody-positive) [2]: 22.8
percent of events in Q2 (reporter-positive, antibody-positive) [3]: 32.2

Isotype (antibody)
percent of events in Q2 (reporter-positive, antibody-positive) [4]: 0.44
percent of events in Q2 (reporter-positive, antibody-positive) [5]: 1.42
percent of events in Q2 (reporter-positive, antibody-positive) [6]: 0.12
percent of events in Q2 (reporter-positive, antibody-positive) [7]: 0.37
percent of events in Q2 (reporter-positive, antibody-positive) [8]: 1.18

B1: murine monoclonal antibody muMAB 67A (antibody, V domains shown)
VH: EVQLQQSGPELVKPGASMKISCKASGYSFTGYTMNWVKQSHGKNLEWIGLINPYNGGIIYNQKFKGKATLTVDKSSSTAYMELLSLTSEDSAVFYCARDFGYVLDYWGQGTTLTVSS
VL: QIVLTQSPAIMSASPGEKVTITCSASSSVSYMHWFQQKPGTSPKLWIYSTSNLASGVPARFSGSGSGTSYSLTISRVAAEDAATYYCQQRSTYPPWTFGGGTKLEIK
EC50 (read off the curve) [9]: ~0.4 mg/L
